Laboratory results from article doi:10.1101/835280, “Bayesian Modeling Reveals Ultrasensitivity Underlying Metabolic Compensation in the Cyanobacterial Circadian Clock” (bioRxiv, 2019).
Each block holds one binder with its values, some of them ahead of it.

Experiments:
KaiA = biological target: T1, KaiA (Synechococcus elongatus PCC 7942, UniProt Q79PF6 1-284); assay: co-IP; immunoprecipitation of KaiB-FLAG from an in vitro clock reaction of purified KaiA, KaiB-FLAG and KaiC (20 mM Tris-HCl pH 8, 150 mM NaCl, 5 mM MgCl2, 0.5 mM EDTA, 10% glycerol), time course; KaiA left in the supernatant read by SDS-PAGE (SYPRO Ruby) against 1.5 uM GFP as internal standard; conditions: both partners purified
T1 construct: KaiA, circadian clock protein of Synechococcus elongatus PCC 7942; source: expressed and purified as previously described (Phong et al., 2013), anion exchange on HiTrap Q
T1 sequence (looked up): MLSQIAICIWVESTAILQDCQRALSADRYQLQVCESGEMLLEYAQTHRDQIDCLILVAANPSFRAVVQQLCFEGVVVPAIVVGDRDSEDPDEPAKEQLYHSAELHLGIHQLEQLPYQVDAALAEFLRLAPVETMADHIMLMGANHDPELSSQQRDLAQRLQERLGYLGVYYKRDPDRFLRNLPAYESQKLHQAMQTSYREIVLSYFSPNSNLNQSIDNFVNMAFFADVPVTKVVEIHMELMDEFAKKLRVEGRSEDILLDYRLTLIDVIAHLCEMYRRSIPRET

[1] = biological target: the molecule itself; assay: SEC; size-exclusion chromatography on a Superdex 75 16/60 prep grade column, last step of the purification of the 15N-labelled KaiA domains

- binding result (KaiA): binds
B1: KaiB-FLAG (natural protein, Synechococcus elongatus PCC 7942, UniProt Q79PF5 1-102, looked up)
chain: MSPRKTYILKLYVAGNTPNSVRALKTLKNILEVEFQGVYALKVIDVLKNPQLAEEDKILATPTLAKVLPLPVRRIIGDLSDREKVLIGLDLLYGELQDSDDF
notes: KaiB, circadian clock protein of Synechococcus elongatus PCC 7942; also called FLAG-tagged KaiB; source: expressed and purified as previously described (Phong et al., 2013), anion exchange on HiTrap Q

B2: C-terminal domain of KaiA (residues 181-284) (domain or fragment, Synechococcus elongatus PCC 7942, UniProt Q79PF6 181-284, looked up)
chain: NLPAYESQKLHQAMQTSYREIVLSYFSPNSNLNQSIDNFVNMAFFADVPVTKVVEIHMELMDEFAKKLRVEGRSEDILLDYRLTLIDVIAHLCEMYRRSIPRET
notes: KaiA, Synechococcus elongatus PCC 7942, C-terminal domain, residues 181-284; U-[15N] labelled, grown in deuterated water; also called C-terminal KaiA; C-terminal fragment of KaiA; source: E. coli BL21(DE3), M9 medium with 15N-NH4Cl in 98% D2O, purified (Ni-NTA, SEC on Superdex 75)
- stoichiometry N [1]: 2
